The record followed here is article PMC9274624.

Assay [1] has as its target bovine ACE2 extracellular domain (residues 1-740) fused with the Fc domain of mouse IgG (bovine) (UniProt Q58DD0). As to the kind of experiment: SPR. In general terms: Surface plasmon resonance follows binding to a sensor surface in real time, without labels.
The target in assay [2] is cat ACE2 extracellular domain (residues 1-740) fused with the Fc domain of mouse IgG (cat) (UniProt Q56H28). As to the kind of experiment: SPR.
Sequence of UniProt Q56H28 (Q56H28 18-740): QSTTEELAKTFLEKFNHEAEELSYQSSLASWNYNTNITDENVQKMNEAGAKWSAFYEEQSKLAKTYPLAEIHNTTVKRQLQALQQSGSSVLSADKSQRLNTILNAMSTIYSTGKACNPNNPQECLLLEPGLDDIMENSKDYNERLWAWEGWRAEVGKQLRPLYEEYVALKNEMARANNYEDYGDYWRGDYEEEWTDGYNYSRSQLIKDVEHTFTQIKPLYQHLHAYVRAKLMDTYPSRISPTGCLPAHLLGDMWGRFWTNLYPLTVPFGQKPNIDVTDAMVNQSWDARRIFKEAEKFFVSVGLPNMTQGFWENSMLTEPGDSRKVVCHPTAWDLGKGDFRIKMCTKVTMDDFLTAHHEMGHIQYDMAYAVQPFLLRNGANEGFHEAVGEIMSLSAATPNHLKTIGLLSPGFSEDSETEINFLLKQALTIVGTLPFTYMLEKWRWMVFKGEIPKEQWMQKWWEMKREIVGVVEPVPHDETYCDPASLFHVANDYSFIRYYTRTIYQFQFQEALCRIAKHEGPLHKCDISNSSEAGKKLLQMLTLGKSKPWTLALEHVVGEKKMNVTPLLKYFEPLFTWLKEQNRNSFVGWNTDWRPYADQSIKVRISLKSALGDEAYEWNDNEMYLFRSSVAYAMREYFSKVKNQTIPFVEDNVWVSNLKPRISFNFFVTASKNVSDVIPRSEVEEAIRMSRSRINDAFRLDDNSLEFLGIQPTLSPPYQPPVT

A word on the Kd: it is the constant that tells how readily two partners part at equilibrium. Read a high Kd as a looser complex.

Sequence of UniProt Q58DD0 (Q58DD0 18-740): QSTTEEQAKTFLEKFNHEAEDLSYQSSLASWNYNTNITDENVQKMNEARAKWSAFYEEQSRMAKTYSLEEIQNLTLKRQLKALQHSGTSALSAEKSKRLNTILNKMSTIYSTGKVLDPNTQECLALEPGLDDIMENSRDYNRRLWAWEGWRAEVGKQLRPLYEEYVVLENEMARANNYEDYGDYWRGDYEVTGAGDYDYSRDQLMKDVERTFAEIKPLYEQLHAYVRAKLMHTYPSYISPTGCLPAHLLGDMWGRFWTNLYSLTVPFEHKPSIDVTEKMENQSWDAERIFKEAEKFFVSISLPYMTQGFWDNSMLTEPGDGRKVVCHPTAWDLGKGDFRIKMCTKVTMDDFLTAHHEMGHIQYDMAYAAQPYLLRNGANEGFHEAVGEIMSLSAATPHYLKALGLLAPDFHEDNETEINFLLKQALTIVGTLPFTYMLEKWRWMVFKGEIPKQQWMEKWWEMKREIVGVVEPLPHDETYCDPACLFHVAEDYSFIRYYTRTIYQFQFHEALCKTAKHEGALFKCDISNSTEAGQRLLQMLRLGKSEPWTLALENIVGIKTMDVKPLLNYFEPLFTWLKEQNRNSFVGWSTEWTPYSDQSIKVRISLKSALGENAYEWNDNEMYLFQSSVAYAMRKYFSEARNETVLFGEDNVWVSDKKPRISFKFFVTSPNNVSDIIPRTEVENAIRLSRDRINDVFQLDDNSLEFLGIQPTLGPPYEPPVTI

With “SARS-CoV-2 Delta RBD (residues 319-541) (from UniProt P0DTC2 319-541) (domain or fragment)”, the values for the dissociation constant (Kd) in assay [1] and in assay [2] were 71.3 nM and 53.4 nM, respectively.
